Positions count from the first letter of the chain named.
B1: EGFR-CD3 bispecific antibody 401 (bispecific antibody, human IgG4 S228P, kappa, F234A L235A)
heavy: EVKLLESGGGLVQPKGSLKLSCAASGFTFNTYAMNWVRQAPGKGLEWVARIRSKYNNYATYYADSVKDRFTISRDDSQSILYLQMNNLKTEDTAMYYCVRHGNFGNSYVSWFAYWGQGTLVTVSSASTKGPSVFPLAPCSRSTSESTAALGCLVKDYFPEPVTVSWNSGALTSGVHTFPAVLQSSGLYSLSSVVTVPSSSLGTKTYTCNVDHKPSNTKVDKRVESKYGPPCPPCPAPEAAGGPSVFLFPPKPKDTLMISRTPEVTCVVVDVSQEDPEVQFNWYVDGVEVHNAKTKPREEQFNSTYRVVSVLTVLHQDWLNGKEYKCKVSNKGLPSSIEKTISKAKGQPREPQVYTLPPCQEEMTKNQVSLWCLVKGFYPSDIAVEWESNGQPENNYKTTPPVLDSDGSFFLYSRLTVDKSRWQEGNVFSCSVMHEALHNHYTQKSLSLSL
chain: QVQLQESGGGSVQAGGSLKLSCAASGRGFSRYAMGWFRQAPGQDREFVATISWTNSTDYADSVKGRFAISRDNAKNTAYLQMNSLKPEDTAVYYCAADKWASSTRSIDYDYWGQGIQVTVSSESKYGPPCPPCPAPEAAGGPSVFLFPPKPKDTLMISRTPEVTCVVVDVSQEDPEVQFNWYVDGVEVHNAKTKPREEQFNSTYRVVSVLTVLHQDWLNGKEYKCKVSNKGLPSSIEKTISKAKGQPREPQVCTLPPSQEEMTKNQVSLSCAVKGFYPSDIAVEWESNGQPENNYKTTPPVLDSDGSFFLVSRLTVDKSRWQEGNVFSCSVMHEALHNRFTQKSLSLSL
light: QAVVTQESALTTSPGETVTLTCRSSTGAVTTSNYANWVQEKPDHLFTGLIGGTNKRAPGVPARFSGSLIGDKAALTITGAQTEDEAIYFCALWYSNLWVFGGGTKVEIKRTVAAPSVFIFPPSDEQLKSGTASVVCLLNNFYPREAKVQWKVDNALQSGNSQESVTEQDSKDSTYSLSSTLTLSKADYEKHKVYACEVTHQGLSSPVTKSFNRGEC
B2: HER2-CD3 bispecific antibody 504 (bispecific antibody, human IgG4 S228P, kappa, F234A L235A)
chain: QVQLVQSGGGLVQAGGSLRLSCAASGRTFSSYAMAWFRQAPGKEREFVAAISWSGANIYVADSVKGRFTISRDNAKDTVYLQMNSLKPEDTAVYYCAVKLGFAPVEERQYDYWGQGTQVTVSSESKYGPPCPPCPAPEAAGGPSVFLFPPKPKDTLMISRTPEVTCVVVDVSQEDPEVQFNWYVDGVEVHNAKTKPREEQFNSTYRVVSVLTVLHQDWLNGKEYKCKVSNKGLPSSIEKTISKAKGQPREPQVYTLPPCQEEMTKNQVSLWCLVKGFYPSDIAVEWESNGQPENNYKTTPPVLDSDGSFFLYSRLTVDKSRWQEGNVFSCSVMHEALHNHYTQKSLSLSL
heavy: B1 heavy with Y354C, C359S, W371S, L373A, Y412V, H440R, Y441F
light: B1 light

Legend:
[1] = target: EGFR-CD3 bispecific antibody 401; assay: BLI self-interaction: antibody captured on AHQ anti-human Fc sensor, free sites blocked with human IgG, same antibody in solution
[2] = target: HER2-CD3 bispecific antibody 504; assay: as above

Binder	BLI-Response (self-interaction signal) [1] [nm]	BLI-Response (self-interaction signal) [2] [nm]
B1	0.043	–
B2	–	0.07

From patent publication US20240400715A1
